Source: the Immune Epitope Database (IEDB)

Columns and labels:
Assay in all cases: IEDB peptide-MHC binding, purified MHC/competitive/radioactivity; filed as Kd, often an IC50 or EC50 that approximates it; ≥ and ≤ were set here for values at or beyond the usual limits of such assays
[1] = target: HLA-A*03:01
[2] = target: HLA-A*11:01
[3] = target: HLA-A*31:01
[4] = target: HLA-A*33:01
[5] = target: HLA-A*68:01
[6] = source organism: Vaccinia virus WR
[7] = source organism: Dengue virus 1 Brazil/97-11/1997
[8] = source organism: Dengue virus 2 Jamaica/1409/1983
[9] = source organism: SARS coronavirus Tor2
[10] = source organism: Dengue virus 3 Martinique/1243/1999
[11] = source organism: Dengue virus 4 Philippines/H241/1956
[12] = source organism: Dengue virus 3 Singapore/8120/1995
[13] = source organism: Mammarenavirus guanaritoense

Sequence | Kd [1, 6] | Kd [2, 6] | Kd [3, 6] | Kd [4, 6] | Kd [5, 6] | other results
FIKPVSDLY | 647 nM | 832 nM | 634 nM | 501 nM | 252 nM | –
GSSADLSLEK | – | – | – | – | – | Kd [2, 7]: 76 nM
SSGFYFEIAR | ≥ 21300 nM | 90.6 nM | 14.2 nM | 179 nM | 13.3 nM | –
GIFLFLMSGK | – | – | – | – | – | Kd [1, 8]: 85.5 nM; Kd [2, 8]: 549 nM
VTRLENLMWK | – | – | – | – | – | Kd [2, 8]: 128 nM
NIERQDYRR | ≥ 66800 nM | 12000 nM | 1500 nM | 924 nM | 119 nM | –
VLAAECTIFK | – | – | – | – | – | Kd [1, 9]: 59.9 nM; Kd [2, 9]: 104 nM; Kd [3, 9]: 133 nM; Kd [4, 9]: 70.2 nM; Kd [5, 9]: 258 nM
AVRAFLLRHY | 862 nM | 1070 nM | 5240 nM | ≥ 70000 nM | ≥ 29500 nM | –
ITANPVVTKK | – | – | – | – | – | Kd [2, 10]: 84.6 nM; Kd [5, 10]: 23.9 nM
AATIQTPTK | 4120 nM | 9.51 nM | 137 nM | 1260 nM | 1670 nM | –
TLVPVLEKK | 237 nM | 15.9 nM | 332 nM | 14000 nM | 117 nM | –
ITTLLNETAK | 10.9 nM | 12.4 nM | 10700 nM | ≥ 20800 nM | 11.4 nM | –
TVVQRCASNK | – | – | – | – | – | Kd [1, 9]: 140 nM; Kd [2, 9]: 103 nM; Kd [3, 9]: 224 nM; Kd [4, 9]: 7490 nM; Kd [5, 9]: 122 nM
KLCKNHAEK | 13 nM | 19.9 nM | 543 nM | ≥ 38700 nM | 986 nM | –
EINEWLSSK | 201 nM | 170 nM | 7100 nM | 18.6 nM | 3.76 nM | –
KLVTQWCCR | – | – | – | – | – | Kd [3, 11]: 11.9 nM
CVFAYVGCY | – | – | – | – | – | Kd [1, 9]: 19200 nM; Kd [2, 9]: ≥ 27500 nM; Kd [3, 9]: 11900 nM; Kd [4, 9]: ≥ 20600 nM; Kd [5, 9]: 4120 nM
NSSIISLFY | 56.7 nM | 44.6 nM | 5260 nM | 7080 nM | 125 nM | –
WYMWQVKTQR | – | – | – | – | – | Kd [4, 11]: 2.54 nM
WIKNLETYTR | ≥ 40900 nM | 6310 nM | 361 nM | 1130 nM | 38.1 nM | –
FITKEIKNR | ≥ 78000 nM | ≥ 77900 nM | 3590 nM | 6040 nM | 276 nM | –
EMGANFRAGR | – | – | – | – | – | Kd [3, 11]: 67.3 nM; Kd [4, 11]: 7.51 nM

Sequence | Kd [1, 6] | Kd [2, 6] | Kd [3, 6] | Kd [4, 6] | Kd [5, 6] | other results
FSAGAGVLDK | 452 nM | 225 nM | 575 nM | 350 nM | 15 nM | –
KKSKAINVLR | – | – | – | – | – | Kd [3, 8]: 163 nM
ATLAFHLTSR | – | – | – | – | – | Kd [3, 12]: 2.69 nM; Kd [5, 12]: 50.9 nM
AIITPVVFYR | 3700 nM | 11.3 nM | 11.6 nM | 311 nM | 1.72 nM | –
SVDIETAIR | ≥ 78000 nM | 53 nM | 1800 nM | 17500 nM | 187 nM | –
MLINRFTMK | – | – | – | – | – | Kd [1, 8]: 3.57 nM; Kd [2, 8]: 116 nM
IQKITVFNK | – | – | – | – | ≥ 30300 nM | –
IAVSMANIFR | – | – | – | – | – | Kd [3, 8]: 37.4 nM; Kd [4, 8]: 279 nM; Kd [5, 8]: 17.3 nM
ALTPPVSDLK | – | – | – | – | – | Kd ([1]; source organism: Dengue virus 4 Dominica/814669/1981): 86.9 nM
QAIDGEFRLR | – | – | – | – | – | Kd [5, 11]: 15.5 nM
FESLFKCLSH | – | – | – | – | – | Kd [1, 13]: 5530 nM; Kd [3, 13]: 608 nM; Kd [4, 13]: 2750 nM
ITENKIWGR | – | – | – | – | – | Kd ([4]; source organism: Dengue virus 1 Nauru/West Pac/1974): 141 nM
AIFKLTYQNK | – | – | – | – | – | Kd [1, 8]: 41.4 nM; Kd [2, 8]: 57.5 nM
KWLWGFLSR | – | – | – | – | – | Kd [3, 7]: ≥ 77900 nM
DAIDGEYRLR | – | – | – | – | – | Kd [4, 8]: 246 nM; Kd [5, 8]: 17.1 nM
VMAFHLSTR | – | – | – | – | – | Kd ([3]; source organism: Dengue virus 4 Thailand/0348/1991): 9.39 nM
HLAIMAVFK | – | – | – | – | – | Kd [1, 11]: 5.77 nM; Kd [5, 11]: 70.6 nM
ETTILDVDLR | – | – | – | – | – | Kd [5, 11]: 45 nM
GYVLGIFLR | – | – | – | – | – | Kd [3, 11]: 15.7 nM; Kd [4, 11]: 39.8 nM
ATTVITPMLR | – | – | – | – | – | Kd [2, 10]: 222 nM; Kd [3, 10]: 163 nM; Kd [5, 10]: 47.2 nM
DYEVDEDIFR | – | – | – | – | – | Kd [4, 11]: 471 nM
QLKLNWFKK | – | – | – | – | – | Kd [1, 8]: 134 nM
